Measurements taken from patent US20260027179A1, “ANTI-SYNUCLEINOPATHY PEPTIDE AND METHODS TO TREAT NEURODEGENERATIVE DISEASES” (University of British Columbia, priority 2021, published 2026).

Experiments:
[1] = tested on: TH-positive neurons; test: Protection against MPP+ toxicity in ventral midbrain cultures (TH protein, TH-positive neuron counting); format: cell-based, rat; details: 25 μM, 48 hrs, MPP+ 20 μM
Method: Primary rat neuron cultures were prepared from embryos of pregnant Sprague-Dawley rats (E18). The experimental protocol was approved by the University of British Columbia Animal Care Committee. Briefly, the cortical tissue or ventral midbrain tissue was isolated into ice cold HBSS (Invitrogen, 14170-112) and then digested with 0.25% trypsin-EDTA at 37° C. for 30 min. After washing with warm DMEM (supplemented with 10% FBS) three times, neurons were suspended in neuron culture media and dissociated by trituration using varying sizes of pipettes. […]
Neurons were then washed 6×2 min in PBS, and incubated in Alexa Fluor 488 (Life technologies, A-11034; 1:500 dilution in 3% BSA/PBS) for 45 min at 37° C. without agitation. […] Neurons were then imaged with the Zeiss Axio Observer D1 microscope at 20× and 10 fields of view per coverslip were randomly selected and counted. […]
(§1) Brain tissues or cultured cells were lysed on ice in the lysis buffer and then the solution was centrifuged at 14,000 rpm for 10 min at 4° C. Next, the supernatant was collected and protein concentrations were determined using a BCA protein assay kit (Thermo Scientific, 23227). […] The band density of each protein was quantified by the Bio-Rad Quantity One software and the relative optical density was analyzed relative to the loading control β-actin on the same membrane.

[2] = target: T1, endogenous α-synuclein (Mus musculus, UniProt O55042); test: α-synuclein expression in peripheral and brain tissues after peptide injection; format: in vivo; details: 6 μmol/kg, i.p., 6 hours after peptide injection
T1 construct: from tissue; host or cells: kidney, spleen, ventral midbrain, striatum

[3] = target: T2, α-synuclein (Mus musculus, UniProt O55042); test: MPTP mouse model, α-synuclein immunoblotting of brain tissue; format: in vivo; details: MPTP mice, 6 μmol/kg i.p. twice a day for 12 days, immunoblot
T2 construct: tissue Charles River; host or cells: ventral midbrain and striatum of C57BL/6 mice
Method: C57BL/6 mice were i.p. injected with 30 mg/kg parkinsonian toxin MPTP (or saline as control), once per day for 5 consecutive days, to induce dopaminergic neuron damage. The effects of MPTP administration on mouse rotarod performance and damage to dopaminergic neurons were then analyzed 1 week after the last injection of MPTP. To determine the effect of α-synuclein knockdown in protecting dopaminergic neurons against MPTP, the Tat-βsyn-degron peptide or its control Tat-βsyn (6 μmol/kg; i.p.) was used in some animals twice a day for 12 days, beginning the first day of MPTP injection. […] The striatum is a region that receives dopaminergic neuronal projections from the substantia nigra and is also deeply affected in PD. […]
as §1

Sequence: YGRKKRRQRRRRTKSGVYLVGRRRG (The sequence is synthesized (YGRKKRRQRRRRTKSGVYLVGRRRG)) [Tat-βsyn-degron]
- numbers of TH-positive neurons after MPP+ ([1]; blinded counting): almost fully protected dopaminergic neurons
- TH protein levels after MPP+ ([1]; immunoblot): rescue of TH protein levels
- α-synuclein expression in the kidney [2]: significantly reduce the α-synuclein expression
- α-synuclein expression in the spleen [2]: significantly reduce the α-synuclein expression
- α-synuclein expression in the striatum [2]: significantly reduce the α-synuclein expression
- α-synuclein expression in the ventral midbrain [2]: significantly reduce the α-synuclein expression
- α-synuclein in striatum [3]: induced significant α-synuclein degradation
- α-synuclein in substantia nigra-containing ventral midbrain [3]: induced significant α-synuclein degradation
